We go through 18 molecules from patent US20120316071A1 (published 2012).

Numbering of substitutions follows the chain as printed. Names and notes keep the numbering of the source.

Sequences and labels used below:
B1: Fab VH5-51_IGHD5-18*01>3_IGHJ4*01 G100K/G104T G24T/S28R/G35V (H:KT TRV) & V3-4_IGLJ1*01 V91L/S96P S57L (Fab, V domains shown)
VH: EVQLVQSGAEVKKPGESLKISCKTSGYRFTSYWIVWVRQMPGKGLEWMGIIYPGDSDTRYSPSFQGQVTISADKSISTAYLQWSSLKASDTAMYYCARRKYSYTYDYFDYWGQGTLVTVSS
VL: QTVVTQEPSFSVSPGGTVTLTCGLSSGSVSTSYYPSWYQQTPGQAPRTLIYSTNTRLSGVPDRFSGSILGNKAALTITGAQADDESDYYCLLYMGPGISYVFGTGTKVTVL
notes: Fab made in E. coli: VH in plasmid A (CH1, His6 and Flag tags), VL in plasmid E (lambda CL); also called H:KT TRV & L:LP S57L
B2: Fab VH5-51_IGHD5-18*01>3_IGHJ4*01 G100K/G104T G24T/S28R/G35V (H:KT TRV) & V3-4_IGLJ1*01 V91L/S96P S57H (Fab, V domains shown)
VH: B1 VH
VL: B1 VL with L57H
notes: Fab made in E. coli: VH in plasmid A (CH1, His6 and Flag tags), VL in plasmid E (lambda CL); also called H:KT TRV & L:LP S57H
B3: Fab VH5-51_IGHD5-18*01>3_IGHJ4*01 G100K/G104T G24T/S28R/G35V (H:KT TRV) & V3-4_IGLJ1*01 V91L/S96P T53R (Fab, V domains shown)
VH: B1 VH
VL: B1 VL with T53R, L57S
notes: Fab made in E. coli: VH in plasmid A (CH1, His6 and Flag tags), VL in plasmid E (lambda CL); also called H:KT TRV & L:LP T53R
B4: Fab VH5-51_IGHD5-18*01>3_IGHJ4*01 G100K/G104T G24T/S28R/G35V (H:KT TRV) & V3-4_IGLJ1*01 V91L/S96P S57F (Fab, V domains shown)
VH: B1 VH
VL: B1 VL with L57F
notes: Fab made in E. coli: VH in plasmid A (CH1, His6 and Flag tags), VL in plasmid E (lambda CL); also called H:KT TRV & L:LP S57F
B5: Fab VH5-51_IGHD5-18*01>3_IGHJ4*01 G100K/G104T G24T/S28R/G35V (H:KT TRV) & V3-4_IGLJ1*01 V91L/S96P S57E (Fab, V domains shown)
VH: B1 VH
VL: B1 VL with L57E
notes: Fab made in E. coli: VH in plasmid A (CH1, His6 and Flag tags), VL in plasmid E (lambda CL); also called H:KT TRV & L:LP S57E
B6: Fab VH5-51_IGHD5-18*01>3_IGHJ4*01 G100K/G104T G24T/S28R/G35V (H:KT TRV) & V3-4_IGLJ1*01 V91L/S96P S57W (Fab, V domains shown)
VH: B1 VH
VL: B1 VL with L57W
notes: Fab made in E. coli: VH in plasmid A (CH1, His6 and Flag tags), VL in plasmid E (lambda CL); also called H:KT TRV & L:LP S57W
B7: Fab VH5-51_IGHD5-18*01>3_IGHJ4*01 G100K/G104T G24T/S28R/G35V (H:KT TRV) & V3-4_IGLJ1*01 V91L/S96P S57I (Fab, V domains shown)
VH: B1 VH
VL: B1 VL with L57I
notes: Fab made in E. coli: VH in plasmid A (CH1, His6 and Flag tags), VL in plasmid E (lambda CL); also called H:KT TRV & L:LP S57I
B8: Fab VH5-51_IGHD5-18*01>3_IGHJ4*01 G100K/G104T G24T/S28R/G35V (H:KT TRV) & V3-4_IGLJ1*01 V91L/S96P S57P (Fab, V domains shown)
VH: B1 VH
VL: B1 VL with L57P
notes: Fab made in E. coli: VH in plasmid A (CH1, His6 and Flag tags), VL in plasmid E (lambda CL); also called H:KT TRV & L:LP S57P
B9: Fab VH5-51_IGHD5-18*01>3_IGHJ4*01 G100K/G104T G24T/S28R/G35V (H:KT TRV) & V3-4_IGLJ1*01 V91L/S96P T53G (Fab, V domains shown)
VH: B1 VH
VL: B1 VL with T53G, L57S
notes: Fab made in E. coli: VH in plasmid A (CH1, His6 and Flag tags), VL in plasmid E (lambda CL); also called H:KT TRV & L:LP T53G
B10: Fab VH5-51_IGHD5-18*01>3_IGHJ4*01 G100K/G104T G24T/S28R/G35V (H:KT TRV) & V3-4_IGLJ1*01 V91L/S96P S57R (Fab, V domains shown)
VH: B1 VH
VL: B1 VL with L57R
notes: Fab made in E. coli: VH in plasmid A (CH1, His6 and Flag tags), VL in plasmid E (lambda CL); also called H:KT TRV & L:LP S57R
B11: Fab VH5-51_IGHD5-18*01>3_IGHJ4*01 G100K/G104T G24T/S28R/G35V (H:KT TRV) & V3-4_IGLJ1*01 V91L/S96P S57G (Fab, V domains shown)
VH: B1 VH
VL: B1 VL with L57G
notes: Fab made in E. coli: VH in plasmid A (CH1, His6 and Flag tags), VL in plasmid E (lambda CL); also called H:KT TRV & L:LP S57G
B12: Fab VH5-51_IGHD5-18*01>3_IGHJ4*01 G100K/G104T G24T/S28R/G35V (H:KT TRV) & V3-4_IGLJ1*01 V91L/S96P S57K (Fab, V domains shown)
VH: B1 VH
VL: B1 VL with L57K
notes: Fab made in E. coli: VH in plasmid A (CH1, His6 and Flag tags), VL in plasmid E (lambda CL); also called H:KT TRV & L:LP S57K
B13: Fab VH5-51_IGHD5-18*01>3_IGHJ4*01 G100K/G104T G24T/S28R/G35V (H:KT TRV) & V3-4_IGLJ1*01 V91L/S96P S57M (Fab, V domains shown)
VH: B1 VH
VL: B1 VL with L57M
notes: Fab made in E. coli: VH in plasmid A (CH1, His6 and Flag tags), VL in plasmid E (lambda CL); also called H:KT TRV & L:LP S57M
B14: Fab VH5-51_IGHD5-18*01>3_IGHJ4*01 G100K/G104T G24T/S28R/G35V (H:KT TRV) & V3-4_IGLJ1*01 V91L/S96P T53W (Fab, V domains shown)
VH: B1 VH
VL: B1 VL with T53W, L57S
notes: Fab made in E. coli: VH in plasmid A (CH1, His6 and Flag tags), VL in plasmid E (lambda CL); also called H:KT TRV & L:LP T53W
B15: Fab VH5-51_IGHD5-18*01>3_IGHJ4*01 G100K/G104T G24T/S28R/G35V (H:KT TRV) & V3-4_IGLJ1*01 V91L/S96P S57Y (Fab, V domains shown)
VH: B1 VH
VL: B1 VL with L57Y
notes: Fab made in E. coli: VH in plasmid A (CH1, His6 and Flag tags), VL in plasmid E (lambda CL); also called H:KT TRV & L:LP S57Y
B16: Fab VH5-51_IGHD5-18*01>3_IGHJ4*01 G100K/G104T G24T/S28R/G35V (H:KT TRV) & V3-4_IGLJ1*01 V91L/S96P S57N (Fab, V domains shown)
VH: B1 VH
VL: B1 VL with L57N
notes: Fab made in E. coli: VH in plasmid A (CH1, His6 and Flag tags), VL in plasmid E (lambda CL); also called H:KT TRV & L:LP S57N
B17: Fab VH5-51_IGHD5-18*01>3_IGHJ4*01 G100K/G104T G24T/S28R/G35V (H:KT TRV) & V3-4_IGLJ1*01 V91L/S96P S57T (Fab, V domains shown)
VH: B1 VH
VL: B1 VL with L57T
notes: Fab made in E. coli: VH in plasmid A (CH1, His6 and Flag tags), VL in plasmid E (lambda CL); also called H:KT TRV & L:LP S57T
B18: Fab VH5-51_IGHD5-18*01>3_IGHJ4*01 G100K/G104T G24T/S28R/G35V (H:KT TRV) & V3-4_IGLJ1*01 V91L/S96P S57V (Fab, V domains shown)
VH: B1 VH
VL: B1 VL with L57V
notes: Fab made in E. coli: VH in plasmid A (CH1, His6 and Flag tags), VL in plasmid E (lambda CL); also called H:KT TRV & L:LP S57V

The target in this experiment is T1, Recombinant Human DLL4 (delta-like protein 4) (human, UniProt Q9NR61 27-524).
T1 construct: Bought recombinant human DLL4 (R&D Systems Cat#1506-D4/CF) coated on the ELISA plate; also called rHuman DLL4; Delta-like ligand 4
Kind of experiment: ELISA, DLL4 coated on plate, 100 nM Fab.
In the case of B1, the “ELISA Signal-blank (100 nM Fab)” value is 0.3.

B2: the “ELISA Signal-blank (100 nM Fab)” value came out at 0.21.

Turning to B3, the “ELISA Signal-blank (100 nM Fab)” value came out at 0.05.

For the molecule B4, the “ELISA Signal-blank (100 nM Fab)” value turned out to be 0.1.

As to B5, the “ELISA Signal-blank (100 nM Fab)” value was 0.2.

Regarding B6, the “ELISA Signal-blank (100 nM Fab)” value was determined as 0.12.

B7: the “ELISA Signal-blank (100 nM Fab)” value was 0.24.

Take B8: the “ELISA Signal-blank (100 nM Fab)” value came out at 0.36.

Take B9: the “ELISA Signal-blank (100 nM Fab)” value amounted to 0.08.

Take B10: the “ELISA Signal-blank (100 nM Fab)” value is 0.18.

For B11, the “ELISA Signal-blank (100 nM Fab)” value turned out to be 0.23.

For B12, the “ELISA Signal-blank (100 nM Fab)” value worked out at 0.17.

As to B13, the “ELISA Signal-blank (100 nM Fab)” value is 0.3.

Regarding B14, the “ELISA Signal-blank (100 nM Fab)” value was 0.06.

Take B15: the “ELISA Signal-blank (100 nM Fab)” value worked out at 0.28.

For the molecule B16, the “ELISA Signal-blank (100 nM Fab)” value came to 0.24.

As for B17, the “ELISA Signal-blank (100 nM Fab)” value was 0.3.

Regarding B18, the “ELISA Signal-blank (100 nM Fab)” value is 0.34.
